Reference: doi:10.1101/2024.04.09.588654 (bioRxiv, 2024)

Target: Phosphatidylinositol 4-kinase alpha (PI4KA), subunit of the PI4KA complex (human, UniProt P42356 1-2102)
Assay: cryo-EM structure

B1: TTC7B, subunit of the PI4KA complex (natural protein)
chain: MATKKAGSRLETEIERCRSECQWERIPELVKQLSAKLIANDDMAELLLGESKLEQYLKEHPLRQGASPRGPKPQLTEVRKHLTAALDRGNLKSEFLQESNLIMAKLNYVEGDYKEALNIYARVGLDDLPLTAVPPYRLRVIAEAYATKGLCLEKLPISSSTSNLHVDREQDVITCYEKAGDIALLYLQEIERVILSNIQNRSPKPGPAPHDQELGFFLETGLQRAHVLYFKNGNLTRGVGRFRELLRAVETRTTQNLRMTIARQLAEILLRGMCEQSYWNPLEDPPCQSPLDDPLRKGANTKTYTLTRRARVYSGENIFCPQENTEEALLLLLISESMANRDAVLSRIPEHKSDRLISLQSASVVYDLLTIALGRRGQYEMLSECLERAMKFAFEEFHLWYQFALSLMAAGKSARAVKVLKECIRLKPDDATIPLLAAKLCMGSLHWLEEAEKFAKTVVDVGEKTSEFKAKGYLALGLTYSLQATDASLRGMQEVLQRKALLAFQRAHSLSPTDHQAAFYLALQLAISRQIPEALGYVRQALQLQGDDANSLHLLALLLSAQKHYHDALNIIDMALSEYPENFILLFSKVKLQSLCRGPDEALLTCKHMLQIWKSCYNLTNPSDSGRGSSLLDRTIADRRQLNTITLPDFSDPETGSVHATSVAASRVEQALSEVASSLQSSAPKQGPLHPWMTLAQIWLHAAEVYIGIGKPAEATACTQEAANLFPMSHNVLYMRGQIAELRGSMDEARRWYEEALAISPTHVKSMQRLALILHQLGRYSLAEKILRDAVQVNSTAHEVWNGLGEVLQAQGNDAAATECFLTALELEASSPAVPFTIIPRVL
  binding result: binds
